Source: patent US7229960B2, “Methods and compositions for inhibiting GRB7” (University of Vermont and State Agricultural College, priority 2000, dated 2007)
Entries after “also recorded” stand apart in the source; their conditions may differ. Non-standard residues stand in square brackets, D forms with d. No end group written: not given here. pY = N[C@@H](Cc1ccc(OP(=O)(O)O)cc1)C(=O)O

Experiments:
[1] = biological target: T1, SH2 domain of human Grb7 (Homo sapiens, UniProt Q14451); assay: Phage ELISA, peptide-phage binding to Grb7-SH2 domain-GST; conditions: for Relative binding affinity for Grb7: ELISA binding assay, comparison among G7BPs; for Effect of mutation of G7BP-4 phage clone on binding to Grb7-SH2-GST: phage ELISA, compared with G7BP-4
T1 construct: The SH2 domain of human Grb7 containing a GST fusion tag; made in house; host or cells: E. coli
From the text: The G7BPs were identified using peptide phage display techniques. Two phage display libraries were created and screened that led to the identification of these peptides. The first library was a random peptide phage-display library containing more than 10^7 different cyclic decapeptides flanked at each end by regions of four amino acids, according to the following general motif: X4 C X10 C X4 (X=any amino acid residue, C=cysteine). […] The SH2 domain of human Grb7 containing a GST fusion tag was purified from an E. coli expression system. The random 10mer library was screened using standard phage display methodology (Smith GP. 1985. Science. 228:1315-7). The phage library was added to the target protein which was immobilized on glutathione Sepharose beads (Pharmacia). The unbound phage were removed with a series of washes and the bound phage were eluted by competitive elution with excess glutathione. These bound phage were allowed to infect E. coli in order to amplify the eluted phage. This screening process was repeated two times for a total of three rounds of screening. After the third round of screening, clones from the amplified phage were isolated and sequenced. Thirty-nine clones were characterized and all contained a Y-A/D/E-N motif, where the +2 position was enriched for alanine, aspartic acid, and glutamic acid. The second library, biased for this Y-A/D/E-N motif, was created in the same FuseV phage display system. This biased library contained over 10^6 different clones.
An ELISA binding assay was used to determine whether the peptide-phage bind specifically to the SH2 domain of Grb7, and not to the fusion protein (GST) or other SH2 domains that are homologous to Grb7. The overall methodology of an ELISA is well established. Four different proteins were bound to a polystyrene 96-well plate: Grb7-SH2 domain-GST, GST alone, Grb2-GST and BSA as a non-specific negative control. Preparations of the concentrated Grb7 peptide-phage clones were allowed to bind to these proteins. Non-specific binding was blocked by casein. Binding of phage was detected using an anti-phage antibody conjugated to horseradish peroxidase.
Mutational analysis of G7BP-4 has been conducted to determine which amino acid residues are important in peptide binding to Grb7-SH2 as well as to determine the size restriction of these peptides. The mutations for G7BP-4 include the following: (1) eliminating the 4 amino acids flanking the cysteines ([…], SEQ ID NO:35) referred to as G7BP4-No Arms (NA), (2) mutating the cysteines to serine residues ([…], SEQ ID NO:36), which are structurally very similar, referred to as G7BP4-Ser, (3) mutating the cysteines to valine residues ([…], SEQ ID NO:37), which is similar in structure and charge, and (4) a combination where the cysteines were mutated to serines and the 4 flanking amino acids were removed ([…], SEQ ID NO:38), referred to as G7BP-No Arms(NA)-Ser. The substitutions of valine and serine for cysteine will eliminate the peptides ability to form a disulfide loop. The mutations were created as a DNA oligo, ligated into the fuse5 vector, and expressed as a peptide-phage. The resultant phage were tested in a phage ELISA for their ability to bind to Grb7-SH2-GST. […] Variants of the G7BP-1, G7BP-2, G7BP-3, G7BP-5, G7BP-6 and G7BP-7 which similarly lack the 4 tracking amino acids on both ends can also bind specifically to Grb7. These peptides have the following amino acid sequences respectively: […]

[2] = biological target: Grb7-SH2-GST (Homo sapiens, UniProt Q14451); assay: Competition ELISA, free synthetic peptide versus Grb7 binding peptide-phage on Grb7-SH2-GST; conditions: for Inhibition of G7-8NA peptide-phage binding to Grb7-SH2 / Inhibition of G7-18 peptide-phage binding to Grb7-SH2: free synthetic peptide at 1, 10, 100 uM
From the text: The G7-18 (FIG. 5A) and G7-8NA (FIG. 5B) peptide-phage were concentrated with standard polyethylene glycol precipitation methods and added to each well (1×10^6 phage/well) in the presence of synthetic peptides or without (control). G7-18 peptide-phage competitors were G7-18, G7-18NATE and G7-8 free synthetic peptides (FIG. 5A). G7-8NA peptide-phage competitors were G7-8, G7-8NA and G7-8NATE free synthetic peptides (FIG. 5B). The synthetic peptides were mixed at different concentrations (1, 10, 100 uM) with peptide-phage before adding to Grb7-SH2-GST. Unbound phage were washed away with Tween-TBS buffer and bound phage were detected with anti-M13-horseradish peroxidase (Amersham-Pharmacia Biotech) and ABTS substrate (Calbiochem). Phage was detected by anti-M13-HRP antibody conjugate and detected using ABTS substrate. Plates were read at OD405.

[3] = biological target: association of Grb7 with the ErbB family of receptors (Homo sapiens, UniProt Q14451); assay: Co-immunoprecipitation of Grb7 with tyrosine phosphorylated ErbB family in heregulin-stimulated SKBR3 cell lysate; conditions: for Inhibition of association of Grb7 with the ErbB family: heregulin β1 stimulated SKBR3 lysate, anti-Grb7 IP, anti-phosphotyrosine at 185 kDa, densitometry
association of Grb7 with the ErbB family of receptors, sequence (Q14451 whole entry): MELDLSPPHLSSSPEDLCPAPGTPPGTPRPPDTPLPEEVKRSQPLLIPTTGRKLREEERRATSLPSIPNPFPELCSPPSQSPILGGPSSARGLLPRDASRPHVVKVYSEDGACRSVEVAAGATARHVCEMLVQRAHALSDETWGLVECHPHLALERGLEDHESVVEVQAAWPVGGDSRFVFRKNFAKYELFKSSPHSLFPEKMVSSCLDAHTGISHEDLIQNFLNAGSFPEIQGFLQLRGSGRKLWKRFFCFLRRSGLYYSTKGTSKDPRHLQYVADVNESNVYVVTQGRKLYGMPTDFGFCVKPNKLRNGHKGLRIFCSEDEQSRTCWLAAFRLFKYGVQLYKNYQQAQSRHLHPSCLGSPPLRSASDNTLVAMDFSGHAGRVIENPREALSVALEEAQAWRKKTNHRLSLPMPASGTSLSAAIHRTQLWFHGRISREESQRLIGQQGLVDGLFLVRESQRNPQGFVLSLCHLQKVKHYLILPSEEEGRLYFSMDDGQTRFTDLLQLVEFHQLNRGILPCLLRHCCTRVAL
Protocol: Two of the Grb7-binding peptides were tested for their ability to inhibit Grb7 from binding its known target molecules, such as ErbB2 and ErbB3, in whole cell extracts. Whole cell extracts were made from the cell line SKBR3, which overexpresses Grb7, ErbB2 and ErbB3. […] The immunoprecipitations were carried out with anti-Grb7 followed by western blot. The western blot was divided so the top half was incubated with anti-phosphotyrosine to detect the associated ErbB family that migrates at 185 kDa. The bottom half of western blot was incubated with anti-Grb7 as a loading control.

Grb7-SH2-GST, sequence (Q14451 431-527 limits assumed): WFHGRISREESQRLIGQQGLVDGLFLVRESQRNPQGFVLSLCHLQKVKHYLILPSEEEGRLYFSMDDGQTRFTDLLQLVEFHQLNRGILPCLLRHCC
T1 sequence (Q14451 431-527 limits assumed): as above

GVSN C VFWG YAN DWL C SDYS (GVSNCVFWGYANDWLCSDYS; Peptide sequence from FuseV Phage Display) [G7BP-4]
Relative binding affinity for Grb7 [1]: higher affinity
Inhibition of G7-8NA peptide-phage binding to Grb7-SH2 [2]: inhibition
Inhibition of G7-18 peptide-phage binding to Grb7-SH2 ([2]; listed as G7-8): inhibits; also recorded: inhibition

Y1139 peptide: the Y1139 ErbB2-site peptide when it is phosphorylated (PQPEYVNQPD; not fully specified (residue 5))
Inhibition of association of Grb7 with the ErbB family [3]: does compete

SVFGYANDWLS (Variant of G7BP-4) [G7BP-No Arms(NA)-Ser]
Effect of mutation of G7BP-4 phage clone on binding to Grb7-SH2-GST [1]: reducing the binding capacity

GVSNVVFGYANDWLVSDYS (Variant of G7BP-4) [SEQ ID NO:37, G7BP-4 with cysteines mutated to valine]
Effect of mutation of G7BP-4 phage clone on binding to Grb7-SH2-GST [1]: reducing the binding capacity

GVSNSVFGYANDWLSSDYS (Variant of G7BP-4) [G7BP4-Ser]
Effect of mutation of G7BP-4 phage clone on binding to Grb7-SH2-GST [1]: reducing the binding capacity

^VFWG YAN DWL C^ (VFWGYANDWLC; cyclised thioether; Variant G7BP-4NATE)
Inhibition of G7-8NA peptide-phage binding to Grb7-SH2 ([2]; listed as G7-8NATE): inhibition; also recorded: to a lesser extent than seen with the disulfide containing peptides

PQPEYVNQPD (Non-phosphorylated peptide which mimics ErbB2 site) [Y 139]
Inhibition of association of Grb7 with the ErbB family [3]: showed no competition

RSTL C WFEG YDN TFP C KYFR (RSTLCWFEGYDNTFPCKYFR; Peptide sequence from FuseV Phage Display) [G7BP-5]
Inhibition of G7-18 peptide-phage binding to Grb7-SH2 [2]: inhibition
Level of inhibition of Grb7 co-immunoprecipitation with the ErbB family ([3]; 100 uM, data not shown): same levels of inhibition

C VFWG YAN DWL C (CVFGYANDWLC; Variant of G7BP-4) [G7BP-4NA]
Relative binding affinity for Grb7 [1]: lesser affinity
Effect of mutation of G7BP-4 phage clone on binding to Grb7-SH2-GST [1]: did not effect its ability to bind
Inhibition of G7-8NA peptide-phage binding to Grb7-SH2 [2]: inhibition

DpYVPML (D[pY]VPML) [N1480, reference compound]
Inhibition of Grb7 binding peptide-phage binding to Grb7-SH2 ([2]; phage clone not specified, data not shown): No inhibition
